Laboratory results published in the RNAGym collection of RNA variant scans (doi:10.7554/elife.80360).

B1: HDV Ribozyme (parent)
chain: GGCCGGCAUGGUCCCAGCCUCCUCGCUGGCGCCGGCUGGGCAACAUUCCGAGGGGACCGUCCCCUCGGUAAUGGCGAAUGGGACCCA

Variants of: B1
Assay: self-cleavage, relative activity (ratio to wild type); higher = more cleavage; co-transcriptional

Variant | self-cleavage
GGCCGUCAUGGUCCCAGCCUCCUCGCUGGCGCCGGCUGGGCAACAUUCCGAGGGGACCGUCCCCUCAGUAAUGGCGAAUGGGACCCA [G6U G67A] | 0.517
GGCCGGCAUGGUCCCAGCCUCCUCGCUGGCGCCGGCUGGGCAACAUUCAGAGGGGACCGUCCCCACGGUAAUGGCGAAUGGGACCCA [C49A U65A] | 0.751
GGCCGGCAUGGUCCCAGCCUCCUCGGUCGCGCCGGCUGGGCAACAUUCCGAGGGGACCGUCCCCUCGGUAAUGGCGAAUGGGACCCA [C26G G28C] | 0.0504
GGCCGGCAUGGUCCCAGCCUCCUCGCUGGCGCCGGCUGGGCAACAUGCCGAGGGGACCGUCCCCUCUGUAAUGGCGAAUGGGACCCA [U47G G67U] | 0.929
GGCCGGCAUGGUCCCAGCCUCCUCGCUGGCGCCGGCUGGGCAACAUUCCGAGUGGACCGUCCCCUGGGUAAUGGCGAAUGGGACCCA [G53U C66G] | 0.821
GGCCGGCAUGGUCCGAGCCUCCUCGCUGGCGCCGGCUGGGCAACAUUCCGAGGGGACCGUCCCGUCGGUAAUGGCGAAUGGGACCCA [C15G C64G] | 0.415
GGCCGGCAUGGCCCCAGCCUCCUCGCUGGCGCCGGCUGGGCAACAUUCCGAGGGGAUCGUCCCCUCGGUAAUGGCGAAUGGGACCCA [U12C C57U] | 0.293
GGCCGGCAUGGUCCCAGCCUCCUCGCUGGCGGCGGCUGGGCAACAUUCCGAGGGGACCGUCCACUCGGUAAUGGCGAAUGGGACCCA [C32G C63A] | 0
GGCCGGCAUGGUCCCACCCUCCUCGCUGGCGCCGGCUGGGCAGCAUUCCGAGGGGACCGUCCCCUCGGUAAUGGCGAAUGGGACCCA [G17C A43G] | 0
GGCCGGCAUGGUCCCAGCCUCCUCGCUGGCGCCAGCUGGGCAACAUUCCGAGGGGACCGUCCCCUCGGUAAUGGCGAAUGGGACUCA [G34A C85U] | 0.163
GGCCGGCAUGGUCCCAGGCUCCUCGCUGGCGCCGGCUGGGCAACAUUCCGAGGGGACCGUCCCCUCGAUAAUGGCGAAUGGGACCCA [C18G G68A] | 0.0504
GGCCGGCAAGGUCCCAGCAUCCUCGCUGGCGCCGGCUGGGCAACAUUCCGAGGGGACCGUCCCCUCGGUAAUGGCGAAUGGGACCCA [U9A C19A] | 0.194
GGCCGGCAUGGUUCCAGCCUCCUCGCUGGCGCCGGCUGGGCAACAUUCCGAGGAGACCGUCCCCUCGGUAAUGGCGAAUGGGACCCA [C13U G54A] | 0.739
GGCCGGCAUGGUCCCAGCCUCCUCGCUGGCGCCGGCUGGGCAAAAUUCCGAGUGGACCGUCCCCUCGGUAAUGGCGAAUGGGACCCA [C44A G53U] | 0.929
GGCCGGCCUGGUCCCAGCCUCCUCGCUGGCGCCGGCUGGGCAACAGUCCGAGGGGACCGUCCCCUCGGUAAUGGCGAAUGGGACCCA [A8C U46G] | 0.554
GGCCGGCAUGGUCCCAGCCUCCUCGCUGGCGCCGGCUGGGCAACAUUCCGAGGGGACCGUCCCCUCGGUAAUGGCGAAUAGGACCCA [G80A] | 0.348
GGCCGGCAUCGUCCCAGCCUCCUCGCUGGCGCCGGCUGCGCAACAUUCCGAGGGGACCGUCCCCUCGGUAAUGGCGAAUGGGACCCA [G10C G39C] | 0.359
GGCCGGCAUGGUCCCAGCCUCCUCGCUGGCGCCGGCUGGGCAACAUUCCGAGGGGACCGUCCUCUCGGUAAUGCCGAAUGGGACCCA [C63U G74C] | 0.201
GGCCGGCAUGGUCCCAGCCUCCUUGCUGGCGCCGGCUGGGCAACAUUCCGAGGGGACCGUCCCCUCGGUAAUGGCGAAUUGGACCCA [C24U G80U] | 0.102
GGCCGGCAUGGUCCCAGCCUCCCCGCUGGCGCCGGCUGGGCAACAUUCCGAGGGGACCGUCCCCUCGGUAAUGACGAAUGGGACCCA [U23C G74A] | 0.217
GGUCGGCAUGGUCCCAGCCUCCUCGCUGGCGCCGGCUGGGCAACAUUACGAGGGGACCGUCCCCUCGGUAAUGGCGAAUGGGACCCA [C3U C48A] | 0.675
GGCCGGCAUGGUCCCAGCCUCCUCGGUGGCGCCGGCUGGGCAACAUUCCGAGGGGACCGUCCCCUCGGUAAUGGCGAAAGGGACCCA [C26G U79A] | 0.692

Variant | self-cleavage
GGCCGGCAUGGUCCCAGCCUCCUGGCUGGCGCCGGCUGGGCAACAUUACGAGGGGACCGUCCCCUCGGUAAUGGCGAAUGGGACCCA [C24G C48A] | 0.0519
GGCCGGCAUGGUCCCUGCCUCCUCGCUGGCGCCGGCUGGGCAACAUUCCGAGGGGACCGUCCCCUCGGUAAUGGCGAUUGGGACCCA [A16U A78U] | 0.332
GGCCGGCAUGUUCCCAGCCUCCUCGCUGGCGCCGGCUGGGCAACAUUCCGAGGGGACCGUCCCCUCGGUAAUGGCGAAUGGGAUCCA [G11U C84U] | 0.292
GGCCGGCAUGGUCCCAGCCUCCUCGCUGGCGCCGCCUGGGCAACAUUCCGAGGGGACCGUCCCCUCGGUAAUGGCGGAUGGGACCCA [G35C A77G] | 0.18
GGCAGGCAUGGUCCCAGCCUCCUCGCUGGCGCCGGCUGGGCUACAUUCCGAGGGGACCGUCCCCUCGGUAAUGGCGAAUGGGACCCA [C4A A42U] | 0.0997
GGCCGGCAUGGUCCCAGCCUCCGCGCUGGCGCCGGCUGGGCAACAUUCCGAGGGUACCGUCCCCUCGGUAAUGGCGAAUGGGACCCA [U23G G55U] | 0.502
GGCCGGCAUUGUCCCAGCCUCCUCGCUGGCGCCGGCUGGGCAACAUUCCGAGUGGACCGUCCCCUCGGUAAUGGCGAAUGGGACCCA [G10U G53U] | 0.699
GGCCGGCAUGGUCCCAGCCUCCUCGCGGGCGCCGGCUGGGCAACAUUCCGAGGGGACCGUCCCCUCGGUAAUGGCGAAUGGGACACA [U27G C85A] | 0.831
GGCCGGCAUGGUCCCAGCCUCCUCGCUGGCGCCGGCUGGGCAACACUCCGAGGGGACCGUCCCCUCGGUAAUGGCGAAUGCGACCCA [U46C G81C] | 0.302
GGCCGGCAUGGUCCCAGCCUCCUCGCUGGCGCCGGCUGGGCGACAUUCCGAGGGGACCGUCCCCUCGGUAAUGGCGAAUGGGUCCCA [A42G A83U] | 0.185
GGCCCGCAUGGUCCCAGCCUCCUCGCUGGCGCCGGCUGGGCAACAUUCCGAGGGGAACGUCCCCUCGGUAAUGGCGAAUGGGACCCA [G5C C57A] | 0.111
GGCCGGCAUGGUCCCAGCCUCCUCGCUGGCGCCGGCUGGGCAACAUUCCGAGGGGACCGUCCCCUCUGUAAUGGCCAAUGGGACCCA [G67U G76C] | 1.1
GGCCGGCAUGGUCCCAGCCUCCUCGCUGGCGCCGACUGGGCAACAUUCCGAGGGGACCGUCCCCUCGGUAAUGGCGAAUGGGACGCA [G35A C85G] | 0.643
GGCCAGCAUGGUCCCAGCCUCCCCGCUGGCGCCGGCUGGGCAACAUUCCGAGGGGACCGUCCCCUCGGUAAUGGCGAAUGGGACCCA [G5A U23C] | 0.0573
GGCCGGCAUGGUCCCUGCCUCCUCGCUGGCGCCGGCUGGGCAACAUUCCGAGGGGACCGUCCCCUCGGUAAGGGCGAAUGGGACCCA [A16U U72G] | 0.465
GGCCGGCAUGGUCCCAGCCUCCUCGCUGGCGCCGGCUGGGCAACAUUCCGAGGGGACCGUCCCCCCGGUCAUGGCGAAUGGGACCCA [U65C A70C] | 1.17
GGCCGGCAUGGUCCCAGCCUCCUCGCUGGCGCCGGCUGGGCAACAUUCCGAAGGGACCGUCCCCUCGGUAAUGGCGCAUGGGACCCA [G52A A77C] | 0.309
GGCCGGCAUGGUCCCAGCCUCCUCGCUGGCGCCGGCUGGUCAACAUCCCGAGGGGACCGUCCCCUCGGUAAUGGCGAAUGGGACCCA [G40U U47C] | 0.475
GGCCGGCAUGGUCCCAGCCUCCUCGCUGGCGCCGGCUGGGCAACAUUCCGCGGGGACCGUCCCCUCGGAAAUGGCGAAUGGGACCCA [A51C U69A] | 1.13
GGUCGGCAUGGUCCCAGCCUCCUCGCUGGCGCCGGCUGGGCAACAUUCCGAGGGGACCGUCCCCUCGGUACUGGCGAAUGGGACCCA [C3U A71C] | 0.427
GGCCGGCAUGGUCCCAGCCUCCUCGCUGGCGCCGGCUGGACAACAUUCCGAGGGGACCGUCCGCUCGGUAAUGGCGAAUGGGACCCA [G40A C63G] | 0.46
GGCCGGCAUGGACCCAGCCUCCUCGCUGGCGCCGGCUGGUCAACAUUCCGAGGGGACCGUCCCCUCGGUAAUGGCGAAUGGGACCCA [U12A G40U] | 0.111

Variant | self-cleavage
GGCCGGCAUGGUCCCAGCCUCCUCGCUGUCGACGGCUGGGCAACAUUCCGAGGGGACCGUCCCCUCGGUAAUGGCGAAUGGGACCCA [G29U C32A] | 0.135
GGCCGGCAUGGUCCCAGCCUCCUCGCUGGCGCCGGCUGGGCAACAUUCCGAGGGGACCGUCCCCUCGGAUAUGGCGAAUGGGACCCA [U69A A70U] | 0.95
GGCCGGCAUGGUCCCAGCCUCCUCGCUGGCACCGGCUGGGCAACAUUCCGAGGGGACCGUCUCCUCGGUAAUGGCGAAUGGGACCCA [G31A C62U] | 0.554
GGCCGGCAUGGUCCCAGCCUCCUUGCUGGCGCCGGCUGGGCAACACUCCGAGGGGACCGUCCCCUCGGUAAUGGCGAAUGGGACCCA [C24U U46C] | 0.268
GGCCGGCAUGGUCCCAGCGUCCUCGCUGGCGCCGGCUGGGCAACAUUCCGAGGGGACCGUCCCCUAGGUAAUGGCGAAUGGGACCCA [C19G C66A] | 0.108
GGCCGGCAUGGUCCCAGCCUCCUCGCUGGCUCCGGCUGGGCAACAUUCCGAGAGGACCGUCCCCUCGGUAAUGGCGAAUGGGACCCA [G31U G53A] | 0.289
GGUCGGCAUGGUCCCAGCCUCCUCGCUGUCGCCGGCUGGGCAACAUUCCGAGGGGACCGUCCCCUCGGUAAUGGCGAAUGGGACCCA [C3U G29U] | 0.0723
GGCCGGCAUGGUCCCAGCCUCCUCGCUGGCGCCGGCUGGGCAACAUUCCGAUGGGACCGUCCCCUCGGUAAUGGCGAAUGGGACCCU [G52U A87U] | 1
GGCCGGCAUGGUCCCAGCCUCCUCGCUGGCGCCGGCUGGGCAACAUUCCGAGGGGAGCGUCCCCUCGGUCAUGGCGAAUGGGACCCA [C57G A70C] | 0.959
GGCCGGCAUGGUCCCAGCCUCCUCGUUGGCGCCGGCUGGGCAACAUUCCGAGGGGACCGUCCCCUUGGUAAUGGCGAAUGGGACCCA [C26U C66U] | 1.02
GGCCGGCAUGGUCCCAGCCUCCUCGCUGGCGCCGCCUGGGCAACAUUCCGAGGUGACCGUCCCCUCGGUAAUGGCGAAUGGGACCCA [G35C G54U] | 0.326
GGCCGGCAUGGUCCCAGCCUCCUCGCUGGCGCCGGCUGGGCAACAUUCCGAGGGGACAGUCCCCUCGGUAAUGGCGGAUGGGACCCA [C58A A77G] | 1.09
GGCCGGCAUGGUCCCAGACUCCUCGCUGGCGCCGCCUGGGCAACAUUCCGAGGGGACCGUCCCCUCGGUAAUGGCGAAUGGGACCCA [C18A G35C] | 0.147
GGCCGGCAUGGUCCCAGCCUCCUCGCUGGCGCCGGCUGGGCAACAUGCCGAGGGGACCGUCCCCUCGGUAAUGGCGAAUGGGGCCCA [U47G A83G] | 0.8
UGCCGGCAUGGUCCCAGCCUCCUCGCUGGCGCCGGCUGGGCAACAUUCCGAGGGGACCGUCCCCUCAGUAAUGGCGAAUGGGACCCA [G1U G67A] | 0.506
GGACGGCAUGGUCCCAGCCUCCUCGCUGGCGCCGGCUGGGCAACAUUCCGAGGGGACCGUCCCCUCGGUAAUGGCGGAUGGGACCCA [C3A A77G] | 0.313
GGCCGGCAUGGUCCCAGCCUCCUCGCUGGCGCCGGCUGGGCAACAUUCCGAGGGGACCGUCCCCUCGGUAAUGGCGAAUGGGGCCCC [A83G A87C] | 0.906
GGCCGGCAUGGUCCCAGCCUCCUCGCUGGCGCCGGCUGAGCAACAUUCCGAGGGGACCGUCCCCUCGGUAAUGGCGAAUGGGACCUA [G39A C86U] | 0.513
GGCCGGCAUGGUCCCAGCCUCCUCGCUGGCGCCGGCUGGGCAACGUUCCGAGGGGACCGUGCCCUCGGUAAUGGCGAAUGGGACCCA [A45G C61G] | 0.467
GGCCGGCAUGGUCCCAGCCUCCUCGCUGGCGCCGGCUGGGCAACCUUCUGAGGGGACCGUCCCCUCGGUAAUGGCGAAUGGGACCCA [A45C C49U] | 0.831
